Reference: PMC4432624, “Prdx4 is a compartment-specific H2O2 sensor that regulates neurogenesis by controlling surface expression of GDE2” (Nature Communications, 2015)

Molecular target: the molecule itself
Experiment: western blot of Prdx4 dimers and monomers; primary motor neuron cultures treated with H2O2, Tempol or Edaravone; cells lysed with 100 mM maleimide; anti-mPrdx4 blot

B1: mouse Prdx4, endogenous in primary motor neuron cultures (enzyme, UniProt O08807 41-274, looked up)
chain: LESDERFRTRENECHFYAGGQVYPGEASRVSVADHSLHLSKAKISKPAPYWEGTAVINGEFKELKLTDYRGKYLVFFFYPLDFTFVCPTEIIAFGDRIEEFKSINTEVVACSVDSQFTHLAWINTPRRQGGLGPIRIPLLSDLNHQISKDYGVYLEDSGHTLRGLFIIDDKGVLRQITLNDLPVGRSVDETLRLVQAFQYTDKHGEVCPAGWKPGSETIIPDPAGKLKYFDKLN
notes: Peroxiredoxin 4 (Prdx4), mouse, endogenous; also called mPrdx4; source: endogenous, primary motor neuron cultures from E11.5 mouse spinal cords
  stoichiometry N: 2
